Measurements: publication PMC11117473 (2024)
Ends that are not written are not given here.

Key:
Test in all cases: fluorescence polarization
[1] = molecular target: T1, NCOA1 NR2 peptide (Homo sapiens)
T1 chain: Fluorescein-LTARHKILHRLLQEGSPSD

[2] = molecular target: T2, NCOA1 NR2 peptide (Homo sapiens)
T2 chain: Fluorescein-LTARHKILHRLLQEGSPSD

[3] = molecular target: T3, NCOA1 NR2 peptide (Homo sapiens)
T3 chain: Fluorescein-LTARHKILHRLLQEGSPSD

Kd [1]: 540 nM | Kd [2]: 480 nM | Kd [3]: 500 nM
B1: VDR LBD 156-453 (protein)
chain: LSDEQMQIINSLVEAHHKTYDDSYSDFVRFRPPVREGPVTRSASRAASLHSLSDASSDSFNHSPESVDTKLNFSNLLMMYQDSGSPDSSEEDQQSRLSMLPHLADLVSYSIQKVIGFAKMIPGFRDLTAEDQIALLKSSAIEIIMLRSNQSFSLEDMSWSCGGPDFKYCINDVTKAGHTLELLEPLVKFQVGLKKLKLHEEEHVLLMAICLLSPDRPGVQDHVRIEALQDRLCDVLQAYIRIQHPGGRLLYAKMIQKLADLRSLNEEHSKQYRSLSFQPEHSMQLTPLVLEVFGSEVS
